From patent publication US6551840B2, “Method of screening TGF-β-inhibiting substances” (Chugai Seiyaku Kabushiki Kaisha, priority 1997, dated 2003)

How the values were obtained:
Assay type in all cases: cell-based
[1] = test system: mouse kidney mesangial cell line SV40MES13; assay: Fibronectin EIA in SV40MES13 cells expressing TAK1-DN with or without TGF-β; settings: 2.5 ng/ml TGF-β, 24 hours; for increase of fibronectin in the culture supernatant by TGF-β addition: control MES/NEO about 3.3 fold; for increase of fibronectin in the extracellular matrix extract by TGF-β addition: control MES/NEO about 3.8 fold
Text: (§1) Then, pTAK1DN or pCOS1 that contains no inserted genes as a control vector was linearized by digesting with a restriction enzyme PvuI. These linearized vectors were introduced by electroporation into human fibroblast-derived HT-1080 (ATCC CCL 121), a mouse kidney mesangial cell line SV40MES13 (ATCC CRL 1927), and a mink pulmonary epithelial cell line Mv1Lu (ATCC CCL 64), and cells into which the gene was introduced were selected using G418 (manufactured by GIBCO-BRL).
(§2) The mouse mesangial cell line SV40MES13 (MES/DN3 and MES/DN6) into which pTAK1DN had been introduced and the control cells (MES/NEO) into which pCOS1 containing no inserted genes had been introduced were incubated in a low-serum medium (Medium 199 containing 0.2% FBS) with or without 2.5 ng/ml TGF-β for 24 hours. The amount of fibronectin in the culture supernatant or the extracellular matrix extract prepared using 1 M urea solution was determined by the EIA method as described in Example 7.

[2] = test system: human fibroblast-derived HT-1080; assay: Fibronectin EIA in HT-1080 cells expressing TAK1-DN with or without TGF-β; settings: 1 ng/ml TGF-β, 24 hours; for increase of fibronectin in the culture supernatant by TGF-β addition: control HT/NEO about 6.1 fold; for increase of fibronectin in the extracellular matrix extract by TGF-β addition: control HT/NEO about 11.4 fold
Text: as §1
The human fibroblast-derived HT-1080 cells (HT/DN2 and HT/DN14) into which pTAK1DN had been introduced and the control cells (HT/NEO) into which pCOS1 containing no inserted genes had been introduced were incubated in a low-serum medium (Medium 199 containing 0.2% FBS; manufactured by GIBCO BRL) with or without 1 ng/ml TGF-β (manufactured by King Jozo) for 24 hours. The amount of fibronectin in the culture supernatant or the extracellular matrix extract prepared using 1 M urea solution (1 M urea, 1 mM DTT, 10 mM Tris-HCl, pH 7.4, 10 mM EDTA, Protease inhibitor cocktail (CompleteTM, manufactured by Boehringer-Mannheim)) was determined by the EIA method.
Thus, 100 μl of the culture supernatant or the extracellular matrix extract prepared using 1 M urea solution was added to a 96-well microtiter plate (manufactured by Nunc), and the plate was incubated overnight at 4° C. After washing, it was blocked using a 1% BSA solution (50 mM Tris-HCl, pH 8.0, 1 mM MgCl2, 150 mM NaCl, 0.05% Tween 20, 0.02% sodium azide), and then 10000 fold-diluted rabbit anti-human fibronectin antibody (manufactured by CALBIOCHEM) was added to the above 1% BSA solution, and was further incubated at room temperature for 2 hours.
After washing, alkaline phosphatase-labeled goat anti-rabbit Ig antibody (manufactured by TAGO) was added, and was further incubated at room temperature for one hour. Then the substrate solution (p-nitrophenyl phosphate; manufactured by Sigma) was added and absorbance at […] was measured. As a standard, human fibronectin (manufactured by Cappel) was used.

[3] = test system: mouse kidney mesangial cell line SV40MES13; assay: Type I and type IV collagen EIA in SV40MES13 cells expressing TAK1-DN with or without TGF-β; settings: 2.5 ng/ml TGF-β, 24 hours; for increase of type IV collagen in the culture supernatant by TGF-β addition: control MES/NEO about 2.0 fold; for increase of type I collagen in the culture supernatant by TGF-β addition: control MES/NEO about 3.6 fold
Procedure: as §2
Furthermore, the amount of type I and type IV collagen in the culture supernatant was determined by the EIA method. Thus, 100 μl of the culture supernatant was added to a 96-well microtiter plate (manufactured by Nunc), and the plate was incubated overnight at 4° C. After washing, it was blocked using the above 1% BSA solution, and then 5000-fold diluted rabbit anti-mouse type I collagen antibody (manufactured by LSL) or rabbit anti-mouse type IV collagen antibody (manufactured by LSL) was added, and was further incubated at room temperature for 2 hours. After washing, alkaline phosphatase-labeled goat anti-rabbit Ig antibody (manufactured by TAGO) was added, and was further incubated at room temperature for one hour. Then the substrate solution (manufactured by Sigma) was added and absorbance at […] was measured. As a standard, mouse type I collagen (manufactured by Chemicon) or mouse type IV collagen (manufactured by Cosmobio) was used.

B1: TAK1-DN: polypeptide of Glu at position 77 to Gln at position 303 of TAK1 (SEQ ID NO: 4), the TAB1 binding site; dominant negative inhibitor (protein)
chain: ELRQLSRVNHPNIVKLYGACLNPVCLVMEYAEGGSLYNVLHGAEPLPYYTAAHAMSWCLQCSQGVAYLHSMQPKALIHRDLKPPNLLLVAGGTVLKICDFGTACDIQTHMTNNKGSAAWMAPEVFEGSNYSEKCDVFSWGIILWEVITRRKPFDEIGGPAFRIMWAVHNGTRPPLIKNLPKPIESLMTRCWSKDPSQRPSMEEIVKIMTHLMRYFPGADEPLQYPCQ
Which results are given for B1?
increase of fibronectin in the culture supernatant by TGF-β addition ([1]; MED/DN3 cells): about 2.4 fold; increase of fibronectin in the extracellular matrix extract by TGF-β addition ([1]; MED/DN3 cells): about 2.6 fold; increase of fibronectin in the culture supernatant by TGF-β addition ([1]; MES/DN6 cells): ~2.3 fold; increase of fibronectin in the extracellular matrix extract by TGF-β addition ([1]; MES/DN6 cells): ~2.1 fold; increase of fibronectin in the culture supernatant by TGF-β addition ([2]; HT/DN2 cells): about 2.6 fold; increase of fibronectin in the extracellular matrix extract by TGF-β addition ([2]; HT/DN2 cells): about 3.5 fold; increase of fibronectin in the culture supernatant by TGF-β addition ([2]; HT/DN14 cells): ~3.0 fold; increase of fibronectin in the extracellular matrix extract by TGF-β addition ([2]; HT/DN14 cells): ~3.6 fold; increase of type IV collagen in the culture supernatant by TGF-β addition ([3]; MED/DN3 cells): about 1.5 fold; increase of type I collagen in the culture supernatant by TGF-β addition ([3]; MED/DN3 cells): about 2.0 fold; increase of type IV collagen in the culture supernatant by TGF-β addition ([3]; MES/DN6 cells): ~1.4 fold; increase of type I collagen in the culture supernatant by TGF-β addition ([3]; MES/DN6 cells): about 2.0 fold
